Source: the Human Domainome abundance scans (Beltran et al. 2025)
± gives the uncertainty stated by the source.

B1: Tyrosine-protein kinase BTK, residues 215 to 273; numbered along this chain, Q06187 (parent)
chain: ELKKVVALYDYMPMNANDLQLRKGDEYFILEESNLPWWRARDKNGQEGYIPSNYVTEAE

Variants of: B1
Assay: abundance fitness (aPCA) (normalised: wild type 0, dead -1); higher = more abundant; growth selection in yeast, the domain comes from the species named
Settings: Homo sapiens

Point of comparison: Y9D, abundance fitness -0.007 ± 0.061. Against it:
- L19N — lower, -0.701 ± 0.1
- L19A — lower, -0.796 ± 0.056
- L19Y — lower, -0.66 ± 0.059
- L19S — lower, -0.695 ± 0.042
- L19P — lower, -0.515 ± 0.055
- L19Q — lower, -0.711 ± 0.059
- L19R — lower, -0.792 ± 0.042
- L19T — lower, -0.75 ± 0.046
- L19M — within error, -0.105 ± 0.041
- L19F — lower, -0.391 ± 0.067
- L19C — lower, -0.444 ± 0.058
- L19G — lower, -0.851 ± 0.045
- L19D — lower, -0.936 ± 0.086
- L19V — lower, -0.314 ± 0.034
- L19H — lower, -0.703 ± 0.093
- L19I — within error, -0.124 ± 0.067
- L19E — lower, -0.888 ± 0.081
- A7H — lower, -0.804 ± 0.11
- A7K — lower, -0.955 ± 0.06
- A7L — lower, -1 ± 0.047
- A7R — lower, -1.04 ± 0.056
- A7Y — lower, -1.06 ± 0.12
- A7D — lower, -0.909 ± 0.11
- A7T — lower, -0.801 ± 0.056
- A7M — lower, -0.837 ± 0.059
- A7I — lower, -0.966 ± 0.15
- A7N — lower, -1.11 ± 0.15
- A7F — lower, -0.599 ± 0.1
- A7V — lower, -0.681 ± 0.04
- A7W — lower, -1.03 ± 0.071
- A7S — lower, -0.142 ± 0.034
- A7G — lower, -0.364 ± 0.032
- A7Q — lower, -0.828 ± 0.059
- A7E — lower, -0.813 ± 0.054
- A7C — lower, -0.203 ± 0.055
- A7P — lower, -0.654 ± 0.053
- K23A — within error, -0.024 ± 0.049
- V6M — within error, -0.1 ± 0.044
- V6Q — within error, -0.025 ± 0.038
- V6T — within error, -0.017 ± 0.029
- V6P — lower, -0.796 ± 0.049
- V6L — within error, -0.052 ± 0.027
- V6R — within error, -0.093 ± 0.026
- V6E — lower, -0.135 ± 0.041
- V6G — lower, -0.636 ± 0.03
- V6F — within error, -0.073 ± 0.031
- V6C — lower, -0.103 ± 0.03
- V6S — lower, -0.19 ± 0.026
- V6K — within error, -0.023 ± 0.04
- V6W — within error, -0.067 ± 0.042
- V6I — within error, -0.028 ± 0.027
- V6H — lower, -0.154 ± 0.033
- K4W — lower, -0.334 ± 0.047
- K4A — lower, -0.168 ± 0.048
- K4N — lower, -0.339 ± 0.11
- K4T — within error, -0.036 ± 0.046
- K4E — lower, -0.135 ± 0.054
- K4Y — lower, -0.285 ± 0.06
- K4G — lower, -0.357 ± 0.035
- K4D — lower, -0.287 ± 0.17
- K4L — within error, -0.089 ± 0.041
- K4S — within error, -0.1 ± 0.043
- K4M — lower, -0.133 ± 0.061
- K4C — lower, -0.225 ± 0.072
- K4P — lower, -0.15 ± 0.066
- K4I — within error, -0.033 ± 0.098
- K4Q — within error, -0.088 ± 0.059
- K4H — lower, -0.322 ± 0.09
- K4R — within error, -0.072 ± 0.041
- K4V — within error, -0.079 ± 0.044
- D18E — within error, 0.05 ± 0.039
- D18A — within error, -0.017 ± 0.041
- D18H — higher, 0.146 ± 0.065
- D18V — within error, -0.061 ± 0.038
- D18P — lower, -0.469 ± 0.051
- D18I — within error, -0.033 ± 0.077
- D18S — within error, -0.051 ± 0.036
- D18K — within error, -0.048 ± 0.044
- D18Y — within error, 0.025 ± 0.051
- D18Q — within error, 0.018 ± 0.043
- D18L — within error, -0.073 ± 0.032
- D18N — within error, 0.009 ± 0.057
- D18T — within error, -0.034 ± 0.043
- D18G — within error, -0.038 ± 0.037
- D18R — within error, 0.004 ± 0.031
- D18W — within error, -0.07 ± 0.033
- D18F — within error, -0.04 ± 0.067
- N15A — within error, -0.077 ± 0.034
- N15G — within error, 0.065 ± 0.031
- N15Y — lower, -0.23 ± 0.062
- N15L — within error, 0.004 ± 0.03
- N15P — lower, -0.442 ± 0.044
- N15E — within error, -0.011 ± 0.037
- N15F — lower, -0.176 ± 0.045
- N15I — within error, -0.079 ± 0.054
- N15M — within error, -0.03 ± 0.037
- N15H — within error, -0.048 ± 0.069
- N15V — within error, 0.052 ± 0.026
- N15R — within error, 0.026 ± 0.03
- N15D — within error, -0.018 ± 0.049
- N15W — lower, -0.14 ± 0.04
- N15S — within error, 0.059 ± 0.032
- N15T — within error, 0.089 ± 0.042
- L2Y — within error, -0.036 ± 0.073
- Q20W — within error, -0.131 ± 0.066
- Q20M — within error, -0.073 ± 0.058
- Q20D — lower, -0.168 ± 0.077
- Q20V — within error, -0.082 ± 0.034
- Q20R — within error, -0.013 ± 0.045
- Q20L — within error, -0.055 ± 0.038
- Q20T — within error, -0.043 ± 0.05
- Q20F — lower, -0.2 ± 0.055
- Q20N — lower, -0.152 ± 0.065
- Q20I — within error, -0.084 ± 0.055
- Q20E — within error, -0.001 ± 0.059
- Q20G — within error, -0.001 ± 0.045
- Q20C — within error, -0.06 ± 0.059
- Q20S — the same, -0.007 ± 0.042
- Q20H — within error, -0.075 ± 0.08
- Q20P — within error, -0.037 ± 0.044
- Q20A — the same, -0.007 ± 0.04
- Q20K — within error, -0.075 ± 0.075
- Q20Y — within error, -0.037 ± 0.066
- Y9E — within error, 0.001 ± 0.039
- Y9S — within error, 0.053 ± 0.031
- Y9V — within error, 0.031 ± 0.028
- Y9P — lower, -0.663 ± 0.054
- Y9A — within error, 0.062 ± 0.042
- Y9L — within error, 0.056 ± 0.029
- Y9N — within error, 0.07 ± 0.057
- Y9W — within error, -0.053 ± 0.044
- Y9C — within error, 0.006 ± 0.05
- Y9R — within error, 0.057 ± 0.031
- Y9K — within error, 0.073 ± 0.045
- Y9Q — within error, 0.098 ± 0.051
- Y9M — within error, 0.053 ± 0.038
- Y9G — within error, -0.018 ± 0.031
- Y9F — within error, 0.012 ± 0.05
- L8R — within error, -0.017 ± 0.028
- L8S — lower, -0.107 ± 0.035
- L8K — within error, -0.003 ± 0.052
- L8A — lower, -0.124 ± 0.031
- L8C — within error, -0.04 ± 0.041
- L8V — within error, -0.055 ± 0.029
- L8M — within error, -0.014 ± 0.049
- L8T — within error, -0.019 ± 0.04
- L8P — lower, -0.657 ± 0.05
- L8E — within error, -0.094 ± 0.035
- L8N — within error, -0.118 ± 0.077
- L8Q — within error, -0.093 ± 0.047
- L8G — lower, -0.338 ± 0.027
- L8F — lower, -0.222 ± 0.056
- L8D — lower, -0.137 ± 0.055
- R22E — within error, -0.041 ± 0.054
- R22T — within error, -0.037 ± 0.053
- R22Q — within error, -0.011 ± 0.05
- R22V — within error, 0.031 ± 0.033
- R22A — within error, -0.032 ± 0.038
- R22L — within error, -0.002 ± 0.034
- R22W — within error, -0.099 ± 0.037
- R22K — within error, 0.049 ± 0.047
- R22I — within error, -0.026 ± 0.067
- R22Y — within error, 0 ± 0.07
- R22C — within error, -0.004 ± 0.049
- R22S — within error, -0.003 ± 0.035
- R22G — lower, -0.257 ± 0.033
